The values below come from US20210253725A1 (BIONTECH, published 2021).

T1: CD134 expressed on the cell surface of HT1080_OX40 cells (human, UniProt P43489 29-277)
T1 sequence (looked up): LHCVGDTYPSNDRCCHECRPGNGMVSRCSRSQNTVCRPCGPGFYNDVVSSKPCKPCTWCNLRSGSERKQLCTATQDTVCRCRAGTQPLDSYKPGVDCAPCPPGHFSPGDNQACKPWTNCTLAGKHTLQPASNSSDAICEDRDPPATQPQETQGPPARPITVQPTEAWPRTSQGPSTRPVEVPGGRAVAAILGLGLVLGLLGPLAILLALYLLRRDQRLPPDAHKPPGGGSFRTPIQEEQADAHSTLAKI

T2: CD134 protein (His-tagged, Sino Biological Inc. 10481-H08H) (human, UniProt P43489 29-216)
T2 construct: bought protein coated on ELISA plates; also called OX40; TNFRSF4; not shown: His tag
T2 sequence (looked up): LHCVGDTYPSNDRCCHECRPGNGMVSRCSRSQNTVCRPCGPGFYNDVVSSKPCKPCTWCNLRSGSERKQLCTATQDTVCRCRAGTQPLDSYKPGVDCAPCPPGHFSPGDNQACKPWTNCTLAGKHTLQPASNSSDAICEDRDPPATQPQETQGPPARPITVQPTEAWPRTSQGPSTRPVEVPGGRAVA

B1: P018.S.04.A.A06 (antibody, V domains shown)
VH: QSLEESGGRLVTPGTPLTLTCTVSGFSLHNYNIQWVRQAPGKGLEWIGWILTDGSPYCANWAKGRFTISKTSTTVDLKITSPTIEDTATYFCARMGDYNINGLWGPGTLVTVSS
VL: AQVLTQTPSSVSAAVGGTVTINCQSSQRIYNNDFLSWYQQKPGQPPKLLIYAASTLASGVPSRFKGSGSGTQFTLTISDLESDDAATYYCQGGYSSSGWYLPFGGGTEVVVK
notes: V regions on human Ig constant parts; also called AB134_5
B2: P018.S.11.A.A06 (antibody, V domains shown)
VH: QEQLVESGGGLVQPEGSLTLTCKASGFSFSSANCMHWVRQAPEKGLQWIGCVCIGDGTTYYASWVNGRFSISATSSTTVTIQMTSLTAADTATYFCARDLGLWGPGTLVTVSS
VL: AIVMTQTPSSKSVPVGDTVTINCQASESVDKYTQCSWYQQKPGQPPKLLIYYASTLASGVPSRFKGSGSGTQFTLTISDVVSDDAATYYCSGYKGGSADMIAFGGGTELVVT
notes: V regions on human Ig constant parts; also called AB134_23
B3: P018.S.11.A.C04 (antibody, V domains shown)
VH: QSVEESGGRLVTPGTPLTLTCTVSGFSLGSYPMIWVRQAPGKGLEWIGYIDPGRGTTLYASWARGLFTISKTSTTVDLAMTSPTAADTATYFCARSYPGDGAGDLWGQGTLVTVSS
VL: DVVMTQTPASVSEPVGGTVTIKCQASESISNYFSWYQQKPGQPPKLLIYGASTLESGVSSRFKGSGSGTDFTLTISDLESADAATYYCQCTYYGSGDVGGAFGGGTEVVVK
notes: V regions on human Ig constant parts; also called AB134_29
B4: P018.S.12.A.B05 (antibody, V domains shown)
VH: QQQLVESGGGLVKPGASLTLTCKASGFFFSGSYYMCWVRQAPGKGLEWIACIYTGSDDDTNYASWAKGRFTISKTSSTTVTLQMTSLTAADTATYFCARRNYDTDWGGDLWGPGTLVTVSS
VL: AVVLTQTPASVEAAVGGTVTIKCQASQSIGSSLAWYQQKPGQRPKLLIYYASNLASGVSSRFKGSGSGTQFTLTISDLESADAATYYCQCTYTSSDYLDAFGGGTEVVVK
notes: V regions on human Ig constant parts; also called AB134_59
B5: P018.S.12.A.F03 (antibody, V domains shown)
VH: QSLEESGGRLVAPGTPLTLTCTVSGIDLSRYAMGWVRQAPGKGLEYIGIIDDNDITYFATWAKGRFTISKTSTTLGLKITSPTTEDTATYFCARTADYADYSFGLWGPGTLVTVSS
VL: DVVMTQTPTSVSEPVGGTVTIKCQASENIGNYLAWYQQRPGQRPKLLIYAASNLASGVPSRFKGSGSGTEYALTISDLESDDAATYYCQCTYDDSEYFVFGGGTEVVVK
notes: V regions on human Ig constant parts; also called AB134_79
B6: P018.S.12.A.D06 (antibody, V domains shown)
VH: QSVEESGGRLVTPGTPLTLTCTVSGFSLSSYDMSWVRQAPGKGLEWIGIIYVSGTTDYASWAKGRFTISKTSTTVDLKMTSLTTEDTATYFCARDIYVDEIGCFDLWGQGTLVTVSS
VL: DILMTQTPASVEVAVGGTVTIKCQASQNIRTYLAWYQQKPGQPPKLLIYRASTLESGVPSRFKGSGSGIEFSLTISDLESADAATYYCQNYDGGSSTGFGGGTEVVVK
notes: V regions on human Ig constant parts; also called AB134_71
B7: P018.S.11.A.C03 (antibody, V domains shown)
VH: QSVEESGGRLVTPGTPLTLTCKVSGFSLSTYDMIWVRQAPAKGLEYIGIIGGSGFTYYANWAKGRFTISKTSTTVDLKITSPTTEDTATYFCARNNYDMWGPGTLVTVSS
VL: DVVMTQTPASVSEPVGGTVTIKCQASQSISNELAWHQQKPGQRPNLLIYGASTLESGVPSRFKGSRSGTEYTLTISDLESDDAATYYCQCTYYGSSYVGGAFGGGTEVVVK
notes: V regions on human Ig constant parts; also called AB134_28
B8: P018.S.12.A.D05 (antibody, V domains shown)
VH: QEQLKESGGGVVTPGGTLTLTCTASAFSLNHYNIQWVRQAPGKGLEWIGWILTDGTEYYANWAKGRFTISKTSTTVDLKIASPTTEDTATYFCAREGDWGVDSLWGPGTLVTVSS
VL: ALVMTQTPSPVSAAVGGTVTISCQSSQSVDNNDFLSWYQQKPGQPPKLLIYLASKLASGVPSRFSGSGSGTQFTLTISGVQSDDAATYYCKGLYFDSGWYAAFGGGTEVVVE
notes: V regions on human Ig constant parts; also called AB134_70
B9: P018.S.04.A.F06 (antibody, V domains shown)
VH: QSVEESGGRLVTPGTPLTLTCTVSGIDLSSSAMSWVRQAPGKGLEWIGIIGYNDFTYYANWAKGRFTISKTSTTVDLKMTSPTTEDTATYFCARGGSSSYSDYVFDPWGPGTLVTVSS
VL: AFEMTQTPSSVSEPVGGTVTIKCQASQSIYSNLAWYQQKPGQRPKLLIYDASDLASGVPSRFSGSGYGTEFTLTISDLESADAATYYCQSYYGISSYGVAFGGGTEVVVK
notes: V regions on human Ig constant parts; also called AB134_13
B10: P018.S.12.A.F05 (antibody, V domains shown)
VH: QSLEESGGGLVQPGGSLKLSCKASGIDFSSYGVSWVRQAPGKGLEWIAYTYPDYGSTDYASWVNGRFTISLDNAQNTVFLQMTSLTAADTATYFCASSSNGWGGGFYFDLWGPGTLVTVSS
VL: ALVMTQTPSPVSAAVGGTVTINCQASEDIYSNLAWFQQKPGQPPKLLIYGASTLASGVPSRFSGSGSGTEFTLTINDLKSDDAATYYCLGVYTYITTDPNAFGGGTEVVVK
notes: V regions on human Ig constant parts; also called AB134_81
Throughout, for Functional assay Cross-linked by F(ab′)2 fragment IL-8: test concentration or dose not given here.
Throughout, for Functional assay IL-8: test concentration or dose not given here.

The first assay deals with T1, CD134 expressed on the cell surface of …. Put plainly: cell-based or functional assay.
B1: the “Functional assay Cross-linked by F(ab′)2 fragment IL-8” value (“Functional assay Cross-linked” below) turned out to be 2.21 abs. corr and the “Functional assay IL-8” value was 0.879 abs. corr.
In the same order, the values of B2 are 2.16 abs. corr and 0.732 abs. corr.
With B3, the “Functional assay Cross-linked” value was 2.19 abs. corr and the “Functional assay IL-8” value worked out at 0.253 abs. corr.
B4: the “Functional assay Cross-linked” value came to 2.15 abs. corr and the “Functional assay IL-8” value worked out at 0.96 abs. corr.
In the same order, the values of B5 are 2.15 abs. corr and 0.527 abs. corr.
Take B6: the “Functional assay Cross-linked” value stood at 2.17 abs. corr and the “Functional assay IL-8” value amounted to 0.832 abs. corr.
In the same order, the values of B7 are 2.19 abs. corr and 0.586 abs. corr.
The like results for B8 were, in that order, 2.15 abs. corr and -0.007 abs. corr.
Take B9: the “Functional assay Cross-linked” value was determined as 2.21 abs. corr and the “Functional assay IL-8” value was determined as 2.07 abs. corr.
With B10, the “Functional assay Cross-linked” value was determined as 2.17 abs. corr and the “Functional assay IL-8” value was 0.341 abs. corr.

In a further assay the target is T2, CD134 protein (His-tagged, Sino …). Put plainly: ELISA, coated His-tagged CD134. Note: test concentration or dose not given here. Background: An ELISA detects its analyte on a solid surface through an enzyme-linked reagent.
Consider B1, for which the “ELISA [abs. corr.]” value was 2.85 abs. corr.
Still for that read-out and setting: then B2, with 1.84 abs. corr; and B3, with 1.96 abs. corr; and B4, with 2.1 abs. corr.
Still for that read-out and setting: then B5, with 2.45 abs. corr; and B6, with 0.865 abs. corr.
On to B7, for which the “ELISA [abs. corr.]” value stood at 1.53 abs. corr.
With B8, the “ELISA [abs. corr.]” value amounted to 2.13 abs. corr.
Still for that read-out and setting: then B9, with 2.36 abs. corr; and B10, with 2.12 abs. corr.

A further assay concerns the target T1, CD134 expressed on the cell surface of …. Put plainly: cell-based or functional assay. The source holds these as a separate data set.
B1: the “EC 50 (IL-8 release, cross-linked)” value amounted to 0.63 µg/mL.
On the same count and under the same terms, then B2, with 2.09 µg/mL; and B3, with 0.785 µg/mL; and B4, with 0.102 µg/mL.
Same read-out and setting: to B5 belongs 1.63 µg/mL.
As for B6, the “EC 50 (IL-8 release, cross-linked)” value was 2.77 µg/mL.
Same read-out and setting: then B7, with 0.217 µg/mL; and B8, with 2.4 µg/mL; and B9, with 0.44 µg/mL.
For the molecule B10, the “EC 50 (IL-8 release, cross-linked)” value worked out at 0.733 µg/mL.

For the next assay the target is unchanged. Briefly: HT1080_OX40 cells, imaging. Note: test concentration or dose not given here.
Regarding B1, the “Cellular binding assay [RFU]” value is 486 RFU.
For B2, the “Cellular binding assay [RFU]” value worked out at 537 RFU.
The same measure, in the same setting: to B3 belongs 406 RFU; to B4, 536 RFU.
The same measure, in the same setting: then B5, with 485 RFU.
Still for that read-out and setting: to B6 belongs 180 RFU; to B7, 507 RFU.
Consider B8, for which the “Cellular binding assay [RFU]” value worked out at 451 RFU.
B9: the “Cellular binding assay [RFU]” value was 402 RFU.
Same read-out and setting: then B10, with 511 RFU.
